IntAct's records for PubMed 21321230

Legend:
[1] = target: dcc_rat Dcc (UniProt Q63155)
[2] = target: dcc_rat Dcc (UniProt Q63155); remark: listed apart in the source

Chain of UniProt Q63155 (Q63155 whole entry): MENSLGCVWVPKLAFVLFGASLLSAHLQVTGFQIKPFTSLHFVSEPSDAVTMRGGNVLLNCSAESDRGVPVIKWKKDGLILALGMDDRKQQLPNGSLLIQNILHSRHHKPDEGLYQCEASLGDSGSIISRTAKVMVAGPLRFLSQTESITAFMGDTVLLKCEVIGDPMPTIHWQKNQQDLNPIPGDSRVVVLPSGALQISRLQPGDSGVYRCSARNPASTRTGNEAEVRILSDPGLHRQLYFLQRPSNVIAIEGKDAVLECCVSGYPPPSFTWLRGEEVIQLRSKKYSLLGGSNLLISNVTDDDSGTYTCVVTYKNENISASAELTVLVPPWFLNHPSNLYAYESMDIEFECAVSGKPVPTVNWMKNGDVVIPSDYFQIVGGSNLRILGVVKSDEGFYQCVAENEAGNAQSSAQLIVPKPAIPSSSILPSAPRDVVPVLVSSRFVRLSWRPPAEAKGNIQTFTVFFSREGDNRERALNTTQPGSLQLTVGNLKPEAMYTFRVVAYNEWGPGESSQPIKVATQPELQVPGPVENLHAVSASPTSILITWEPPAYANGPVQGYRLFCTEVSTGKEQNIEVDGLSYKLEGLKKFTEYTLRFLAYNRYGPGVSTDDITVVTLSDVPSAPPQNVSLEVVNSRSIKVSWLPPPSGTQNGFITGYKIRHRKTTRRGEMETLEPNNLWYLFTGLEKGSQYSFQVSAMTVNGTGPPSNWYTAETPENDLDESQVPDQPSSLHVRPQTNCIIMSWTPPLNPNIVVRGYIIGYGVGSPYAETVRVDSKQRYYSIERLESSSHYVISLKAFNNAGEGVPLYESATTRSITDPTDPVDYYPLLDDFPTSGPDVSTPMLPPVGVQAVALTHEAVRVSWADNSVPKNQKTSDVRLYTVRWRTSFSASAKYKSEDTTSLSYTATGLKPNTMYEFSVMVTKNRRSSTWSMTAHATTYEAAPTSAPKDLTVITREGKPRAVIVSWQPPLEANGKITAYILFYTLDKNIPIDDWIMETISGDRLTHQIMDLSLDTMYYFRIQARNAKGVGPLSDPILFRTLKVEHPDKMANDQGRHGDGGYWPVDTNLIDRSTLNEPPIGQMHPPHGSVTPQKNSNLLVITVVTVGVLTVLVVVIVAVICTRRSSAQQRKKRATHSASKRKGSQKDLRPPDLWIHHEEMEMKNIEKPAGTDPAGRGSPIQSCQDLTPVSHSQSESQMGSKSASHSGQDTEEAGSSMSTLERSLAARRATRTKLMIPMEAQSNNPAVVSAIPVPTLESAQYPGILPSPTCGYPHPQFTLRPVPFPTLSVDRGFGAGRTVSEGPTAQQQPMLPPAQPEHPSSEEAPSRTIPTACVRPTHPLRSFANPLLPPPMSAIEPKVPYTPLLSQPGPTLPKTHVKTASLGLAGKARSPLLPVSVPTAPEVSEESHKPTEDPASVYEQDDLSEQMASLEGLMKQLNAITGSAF

| Substance | effect of a mutation on the interaction [1] | effect of a mutation on the interaction [2] |
| --- | --- | --- |
| Unconventional myosin-X (Homo sapiens), Q9HD67 I2037E | disrupting interaction strength |  |
| Unconventional myosin-X (Homo sapiens), Q9HD67 S1718A;H1719A |  | disrupting interaction strength |
| Unconventional myosin-X (Homo sapiens), Q9HD67 S1718A;H1719A;D1763A;E1769A;K1770A |  | disrupting interaction strength |
